Experimental data taken from article doi:10.1101/2022.02.20.481182.

Columns and labels:
[1] = molecular target: BRPF2 bromodomain, wild-type, N-terminal His6-tagged (UniProt O95696); assay: ITC
[2] = molecular target: BRPF2 bromodomain F648A mutant (UniProt O95696); assay: pull-down
[3] = molecular target: BRPF2 bromodomain, wild-type, N-terminal His6-tagged (UniProt O95696); assay: pull-down

Sequence of BRPF2 bromodomain, wild-type, N-terminal His6-tagged (O95696 556-688): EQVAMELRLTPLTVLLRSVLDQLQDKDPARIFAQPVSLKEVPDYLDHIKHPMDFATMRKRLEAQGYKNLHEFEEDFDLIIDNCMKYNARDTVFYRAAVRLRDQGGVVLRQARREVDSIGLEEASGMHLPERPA
Sequence of BRPF2 bromodomain F648A mutant (O95696 556-688 F648A): as the sequence (O95696 556-688) above, with F93A counted along it

| Kd [1] [µM] | fold reduction of binding against the wild type [2] [fold] | fold reduction of binding with BAY-299 against without inhibitor [3] [fold] | Substance |
| --- | --- | --- | --- |
| 12.2 | – | – | histone H4Kac4 (H4K5/8/12/16) (1-20) peptide (from UniProt P62805 2-21) |
| – | 1.5 | 3 | endogenous hyperacetylated histone H4 bearing the K5ac mark (from UniProt P62805 1-103) (natural protein) |
| 55.2 | – | – | histone H2AK5ac (1-12) peptide (from UniProt P0C0S8 2-13) |
